The target in series [1] is T1, FumI (class I fumarase) (Methylotuvimicrobium alcaliphilum, UniProt G4T1T1).
T1 construct: gene fumA; full length, 507 residues, His6-tagged, pET22b(+), E. coli BL21(DE3); homodimer (130 kDa); aerobically purified, stabilised with iron-sulfur mixture; [4Fe-4S]
Description: spectrophotometric hydration assay at […] nm, Hill fit. Type of series: biochemical. The settings on record: 50 mM Tris-HCl pH 8.5, optimal conditions, aerobic; Hill n = 1.4 ± 0.2; read-out: Class I fumarase / S0.5.

Series [2] has as its target T2, FumC (class II fumarase) (Methylotuvimicrobium alcaliphilum, UniProt G4SWR5). As to conditions: read-out: Class II fumarase (FumС) / Km(S0.5*); 50 mM Tris-HCl pH 8.0; text b40 prints 0.10 ± 0.001 mM.
The target in series [3] is T1, FumI (class I fumarase). Kind of series: coupled assay with NADP-dependent malic enzyme at […] nm. As to conditions: activator; 1 mM succinate, 1 mM fumarate, 50 mM Tris-HCl pH 8.5, 5 mM MgCl2; coupling enzyme present. Type of series: biochemical.
In series [4] the target is T2, FumC (class II fumarase). The series is described as above. On the set-up: full length (gene 1404 bp), His6-tagged, pET22b(+), E. coli BL21(DE3); homotetramer (184 kDa). As to conditions: 1 mM fumarate, 50 mM Tris-HCl pH 8.0, coupling enzyme present. Type of series: biochemical.
Substrate in series [5]: O=C(O)C[C@H](O)C(=O)O
Kind of series: purified protein.

Substrate in series [6]: C/C(=C\C(=O)O)C(=O)O
Description: purified protein. Type of series: biochemical, Methylotuvimicrobium alcaliphilum. As to conditions: 50 mM Tris-HCl pH 8.5, aerobic, Hill n = 1.4 ± 0.1, error in Table 1 printed ± 0.2.

[7] abbreviates: 50 mM Tris-HCl pH 8.5, Hill n = 2.1 ± 0.4.
The mark [8] stands for this setting: 50 mM Tris-HCl pH 8.5, aerobic, Hill n = 1.7 ± 0.1, error in text b33 ± 0.03.

The kcat/Km is the second-order rate constant that governs catalysis at low substrate concentration.

As for `O=C(O)/C=C/C(=O)O` [fumarate], the Km was determined as 280 ± 40 µM in series [1] and 110 ± 4 µM in series [2].

As for `O=C(O)CCC(=O)O` [succinate], the “fold activity at 1 mM” value in series [3] was ~ 1.5 fold.

As for `C=C(OP(=O)(O)O)C(=O)O` [phosphoenolpyruvate], the “% reduction of activity at 1 mM” value in series [4] (1 mM phosphoenolpyruvate) is 30%.

For the molecule `O=C(O)CC(O)(CC(=O)O)C(=O)O` [citrate], in series [4] (1 mM citrate), the “% reduction of activity at 1 mM” value is recorded as 50%.

B1: FumC (class II fumarase) (Methylotuvimicrobium alcaliphilum 20Z) (protein)
chain: MTIGSSAGRIESDALGSIEVPADKYWGAQTQRSLHYFAIGDERLPRPLIRALGIVKRCAALSNIAQNKLDEKLGRAIVDAAQEVIDGALDEHFPLVIWQTGSGTQSNMNANEVIANRVNERLGGALGSKSPVHPNDHCNLSQSSNDVFPSAMHIAAVEQLQCLLIPSLQRLQKTLSDKSQAWADIIKIGRTHLQDATPLSLGQEFSGYATQVQLSIERLQDSLKRLYPLAQGGTAVGTGLNSSQGFAELFADEVAKFTGHPFTSAANKFEAMAAHDALVELSGVLNCSAVSLNKIANDIRLLSSGPRSGLGELILPANEPGSSIMPGKINPTQCEALTMVCTQVIGNHTTVTLAGAQGHLELNTFKPVMIYNVLQSIRLLGDAAHSFTEHCVAGIQPNAERIAELMEQSLMLVTALVPQIGYDKAAQIAKTAMQNGTTLREEAIAVGLVSAEQFDAIVRPERMIMPK
Take B1: in series [5] (setting [7]), the K0.5 amounted to 0.14 ± 0.01 mM and the kcat/Km was 1000 M⁻¹ s⁻¹.

B2: FumI (class I fumarase) (Methylotuvimicrobium alcaliphilum 20Z) (protein)
chain: MTLIRQEDFIQSIFESLQYISYYHPQDFIEAMYRAYQNEQSSAAKDAIAQILINSRMCAEGHRPICQDTGIVVVFLKIGMNVQWDAQISITDMVNEGVRRAFMHPDNILRASILSDPAGKRINTRDNTPAVVYMEVVPGDRVEVEIAAKGGGSEAKSKFAMLNPSDSIVDWVMQTVPTMGAGWCPPGILGIGIGGTAEKAMLLAKQACMESVDIHELIARGPVNALEELRLELYEKVNALGIGAQGMGGLTTVLDIKIKDYPAHAANKPVAMIPNCAATRHIHFELDGSGPAELPVPCLEDWPKIAWEGGNSAKRVNLDTVTKDEIATWRPGETLLLSGTLLTGRDAAHKRIVEMLERGEALPEGVDFTNKFIYYVGPVDPVRDEVVGPAGPTTATRMDKFTEAMLAQTGLIGMIGKAERGPVAIEAIKKHRAVYLMAVGGAAYLVSKAIRKARVVAFEDLGMEAVHEFVIEDMPVTVAVDVDGESIHKSGPKQWQAKIGKIPVVSK
notes: full length, 507 residues, His6-tagged, pET22b(+), E. coli BL21(DE3); homodimer (130 kDa); aerobically purified, stabilised with iron-sulfur mixture; [4Fe-4S]
With B2, in series [5] (setting [8]), the K0.5 amounted to 0.55 ± 0.02 mM and the kcat/Km worked out at 180 M⁻¹ s⁻¹. In series [6], the K0.5 was 0.24 ± 0.02 mM and the kcat/Km came to 750 M⁻¹ s⁻¹.

The values above are taken from paper PMC10602362, “Interchangeability of class I and II fumarases in an obligate methanotroph Methylotuvimicrobium alcaliphilum 20Z” (PLOS ONE, 2023).
